B1: PTP1B (PTPN1) (enzyme, Homo sapiens, UniProt P18031 1-435, looked up)
chain: MEMEKEFEQIDKSGSWAAIYQDIRHEASDFPCRVAKLPKNKNRNRYRDVSPFDHSRIKLHQEDNDYINASLIKMEEAQRSYILTQGPLPNTCGHFWEMVWEQKSRGVVMLNRVMEKGSLKCAQYWPQKEEKEMIFEDTNLKLTLISEDIKSYYTVRQLELENLTTQETREILHFHYTTWPDFGVPESPASFLNFLFKVRESGSLSPEHGPVVVHCSAGIGRSGTFCLADTCLLLMDKRKDPSSVDIKKVLLEMRKFRMGLIQTADQLRFSYLAVIEGAKFIMGDSSVQDQWKELSHEDLEPPPEHIPPPPRPPKRILEPHNGKCREFFPNHQWVKEETQEDKDCPIKEEKGSPLNAAPYGIESMSQDTEVRSRVVGGSLRGAQAASPAKGEPSLPEKDEDHALSYWKPFLVNMCVATVLTAGAYLCYRFLFNSNT
notes: Endogenous protein in cell lysates; also called Tyrosine-protein phosphatase non-receptor type 1
B2: USP15 (enzyme, human, UniProt Q9Y4E8 2-981, looked up)
chain: AEGGAADLDTQRSDIATLLKTSLRKGDTWYLVDSRWFKQWKKYVGFDSWDKYQMGDQNVYPGPIDNSGLLKDGDAQSLKEHLIDELDYILLPTEGWNKLVSWYTLMEGQEPIARKVVEQGMFVKHCKVEVYLTELKLCENGNMNNVVTRRFSKADTIDTIEKEIRKIFSIPDEKETRLWNKYMSNTFEPLNKPDSTIQDAGLYQGQVLVIEQKNEDGTWPRGPSTPKSPGASNFSTLPKISPSSLSNNYNNMNNRNVKNSNYCLPSYTAYKNYDYSEPGRNNEQPGLCGLSNLGNTCFMNSAIQCLSNTPPLTEYFLNDKYQEELNFDNPLGMRGEIAKSYAELIKQMWSGKFSYVTPRAFKTQVGRFAPQFSGYQQQDCQELLAFLLDGLHEDLNRIRKKPYIQLKDADGRPDKVVAEEAWENHLKRNDSIIVDIFHGLFKSTLVCPECAKISVTFDPFCYLTLPLPMKKERTLEVYLVRMDPLTKPMQYKVVVPKIGNILDLCTALSALSGIPADKMIVTDIYNHRFHRIFAMDENLSSIMERDDIYVFEININRTEDTEHVIIPVCLREKFRHSSYTHHTGSSLFGQPFLMAVPRNNTEDKLYNLLLLRMCRYVKISTETEETEGSLHCCKDQNINGNGPNGIHEEGSPSEMETDEPDDESSQDQELPSENENSQSEDSVGGDNDSENGLCTEDTCKGQLTGHKKRLFTFQFNNLGNTDINYIKDDTRHIRFDDRQLRLDERSFLALDWDPDLKKRYFDENAAEDFEKHESVEYKPPKKPFVKLKDCIELFTTKEKLGAEDPWYCPNCKEHQQATKKLDLWSLPPVLVVHLKRFSYSRYMRDKLDTLVDFPINDLDMSEFLINPNAGPCRYNLIAVSNHYGGMGGGHYTAFAKNKDDGKWYYFDDSSVSTASEDQIVSKAAYVLFYQRQDTFSGTGFFPLDRETKGASAATGIPLESDEDSNDNDNDIENENCMHTN
notes: Endogenous protein
B3: CYLD (enzyme, Homo sapiens, UniProt Q9NQC7-2 1-953, looked up)
chain: MSSGLWSQEKVTSPYWEERIFYLLLQECSVTDKQTQKLLKVPKGSIGQYIQDRSVGHSRIPSAKGKKNQIGLKILEQPHAVLFVDEKDVVEINEKFTELLLAITNCEERFSLFKNRNRLSKGLQIDVGCPVKVQLRSGEEKFPGVVRFRGPLLAERTVSGIFFGVELLEEGRGQGFTDGVYQGKQLFQCDEDCGVFVALDKLELIEDDDTALESDYAGPGDTMQVELPPLEINSRVSLKVGETIESGTVIFCDVLPGKESLGYFVGVDMDNPIGNWDGRFDGVQLCSFACVESTILLHINDIIPESVTQERRPPKLAFMSRGVGDKGSSSHNKPKATGSTSDPGNRNRSELFYTLNGSSVDSQPQSKSKNTWYIDEVAEDPAKSLTEISTDFDRSSPPLQPPPVNSLTTENRFHSLPFSLTKMPNTNGSIGHSPLSLSAQSVMEELNTAPVQESPPLAMPPGNSHGLEVGSLAEVKENPPFYGVIRWIGQPPGLNEVLAGLELEDECAGCTDGTFRGTRYFTCALKKALFVKLKSCRPDSRFASLQPVSNQIERCNSLAFGGYLSEVVEENTPPKMEKEGLEIMIGKKKGIQGHYNSCYLDSTLFCLFAFSSVLDTVLLRPKEKNDVEYYSETQELLRTEIVNPLRIYGYVCATKIMKLRKILEKVEAASGFTSEEKDPEEFLNILFHHILRVEPLLKIRSAGQKVQDCYFYQIFMEKNEKVGVPTIQQLLEWSFINSNLKFAEAPSCLIIQMPRFGKDFKLFKKIFPSLELNITDLLEDTPRQCRICGGLAMYECRECYDDPDISAGKIKQFCKTCNTQVHLHPKRLNHKYNPVSLPKDLPDWDWRHGCIPCQNMELFAVLCIETSHYVAFVKYGKDDSAWLFFDSMADRDGGQNGFNIPQVTPCPEVGEYLKMSLEDLHSLDSRRIQGCARRLLCDAYMCMYQSPTMSLYK
notes: Endogenous protein in cell lysates; the isoform is the one matched by MS; also called Ubiquitin carboxyl-terminal hydrolase CYLD
B4: SPATA2 (other, human, UniProt Q9UM82 1-520, looked up)
chain: MGKPSSMDTKFKDDLFRKYVQFHESKVDTTTSRQRPGSDECLRVAASTLLSLHKVDPFYRFRLIQFYEVVESSLRSLSSSSLRALHGAFSMLETVGINLFLYPWKKEFRSIKTYTGPFVYYVKSTLLEEDIRAILSCMGYTPELGTAYKLRELVETLQVKMVSFELFLAKVECEQMLEIHSQVKDKGYSELDIVSERKSSAEDVRGCSDALRRRAEGREHLTASMSRVALQKSASERAAKDYYKPRVTKPSRSVDAYDSYWESRKPPLKASLSLRKEPVATDVGDDLKDEIIRPSPSLLTMASSPHGSPDVLPPASPSNGPALLRGTYFSTQDDVDLYTDSEPRATYRRQDALRPDVWLLRNDAHSLYHKRSPPAKESALSKCQSCGLSCSSSLCQRCDSLLTCPPASKPSAFPSKASTHDSLAHGASLREKYPGQTQGLDRLPHLHSKSKPSTTPTSRCGFCNRPGATNTCTQCSKVSCDACLSAYHYDPCYKKSELHKFMPNNQLNYKSTQLSHLVYR
notes: Endogenous protein in cell lysates
B5: CYP51A1 (enzyme, Homo sapiens, UniProt Q16850-2 1-404, looked up)
chain: MVGKTFTYLLGSDAAALLFNSKNEDLNAEDVYSRLTTPVFGKGVAYDVPNPVFLEQKKMLKSGLNIAHFKQHVSIIEKETKEYFESWGESGEKNVFEALSELIILTASHCLHGKEIRSQLNEKVAQLYADLDGGFSHAAWLLPGWLPLPSFRRRDRAHREIKDIFYKAIQKRRQSQEKIDDILQTLLDATYKDGRPLTDDEVAGMLIGLLLAGQHTSSTTSAWMGFFLARDKTLQKKCYLEQKTVCGENLPPLTYDQLKDLNLLDRCIKETLRLRPPIMIMMRMARTPQTVAGYTIPPGHQVCVSPTVNQRLKDSWVERLDFNPDRYLQDNPASGEKFAYVPFGAGRHRCIGENFAYVQIKTIWSTMLRLYEFDLIDGYFPTVNYTTMIHTPENPVIRYKRRSK
notes: Endogenous protein found by proximity labelling/MS; also called Lanosterol 14-alpha demethylase

Assays:
[1] = target: T1, RNF213-TurboID (Homo sapiens (Human), UniProt Q63HN8 1-5207); test: TurboID proximity biotinylation, streptavidin recovery, MS, SAINT express (FIG. 2B)
T1 construct: Recombined into HeLa FlpIn-TRex RNF213-KO cells; proximity-labelling bait; also called C-Turbo; 3×-FLAG-RNF213-TurboID; not shown: 3×-FLAG tag; TurboID biotin ligase at the C-terminus
Procedure: RNF213-interacting proteins were identified to evaluate how RNF213 regulates hypoxia sensitivity (FIG. 2A). TurboID-RNF213 (“N-Turbo”), RNF213-TurboID (“C-Turbo”), or TurboID alone (Control Turbo) were recombined into HeLa FlpIn-TRex RNF213-KO cells. These cells were labelled with biotin for 10 min., and biotinylated proteins were recovered on streptavidin, digested with trypsin, and analyzed by MS (FIG. 2A). Proteins were ranked as potential binding partners by using the SAINT express algorithm³⁶ Immunoblotting (FIG. 9A) and silver staining (FIG. 9B) confirmed that similar amounts of each sample were submitted for analysis. Relatively few proteins labelled by N-Turbo were labelled to an extent greater than their labeling by Control-Turbo (FIG. 9C). […] Among the other top candidates were the major K63-deubiquitinase and NF-κB regulator CYLD and its interacting protein SPATA2 (FIG. 2B, orange-colored arrows). […] Other top C-Turbo interactors included proteins involved in VEGF signaling, which is induced in hypoxia (FLII, MYOF^{39,40}), inflammation and atherosclerosis (MAP4K4, SPTLC1^{41,42}), lipotoxicity (SPTLC1, ALDH1B1^{43,44}), ischemia response (CPEB4⁴⁵), and stroke (SARS2⁴⁶). Top N-Turbo interactors included CYP51A1, which plays a crucial role in cholesterol metabolism and atherosclerosis⁴⁷.
Cells were cultured in standard media but with 10% tetracycline (Tet)-free FBS (Clonetech) for at least 1 week. Tet-free/biotin-free FBS was generated by incubating Tet-free FBS with sterile streptavidin beads overnight followed by centrifugation to remove the beads. N-Turbo, C-Turbo, and Turbo proteins were induced by adding 1 μg/ml Dox to cells for 36 hours. For the last ten min. of incubation, 500 μM of biotin was added to the medium.

[2] = target: T2, 3×-FLAG-RNF213 (Homo sapiens (Human), UniProt Q63HN8 1-5207, phosphotyrosine at Y1275 (found by MS in cells; phosphorylated by ABL1 in vitro)); test: co-immunoprecipitation/immunoblot (FIG. 2D)
T2 construct: Expressed from pcDNA5-3x-FLAG-RNF213; also called WT-RNF213; wild type RNF213; not shown: 3×-FLAG tag

[3] = target: T3, TurboID-RNF213 (Homo sapiens (Human), UniProt Q63HN8 1-5207); test: TurboID proximity biotinylation, streptavidin recovery, MS, SAINT express (FIG. 9C)
T3 construct: Recombined into HeLa FlpIn-TRex RNF213-KO cells; proximity-labelling bait; also called N-Turbo; not shown: TurboID biotin ligase at the N-terminus
Procedure: RNF213-interacting proteins were identified to evaluate how RNF213 regulates hypoxia sensitivity (FIG. 2A). TurboID-RNF213 (“N-Turbo”), RNF213-TurboID (“C-Turbo”), or TurboID alone (Control Turbo) were recombined into HeLa FlpIn-TRex RNF213-KO cells. These cells were labelled with biotin for 10 min., and biotinylated proteins were recovered on streptavidin, digested with trypsin, and analyzed by MS (FIG. 2A). Proteins were ranked as potential binding partners by using the SAINT express algorithm³⁶ Immunoblotting (FIG. 9A) and silver staining (FIG. 9B) confirmed that similar amounts of each sample were submitted for analysis. Relatively few proteins labelled by N-Turbo were labelled to an extent greater than their labeling by Control-Turbo (FIG. 9C). […] Among the other top candidates were the major K63-deubiquitinase and NF-κB regulator CYLD and its interacting protein SPATA2 (FIG. 2B, orange-colored arrows). […] Other top C-Turbo interactors included proteins involved in VEGF signaling, which is induced in hypoxia (FLII, MYOF^{39,40}), inflammation and atherosclerosis (MAP4K4, SPTLC1^{41,42}), lipotoxicity (SPTLC1, ALDH1B1^{43,44}), ischemia response (CPEB4⁴⁵), and stroke (SARS2⁴⁶). Top N-Turbo interactors included CYP51A1, which plays a crucial role in cholesterol metabolism and atherosclerosis⁴⁷. […]

T1 sequence (Q63HN8 whole entry N1045D): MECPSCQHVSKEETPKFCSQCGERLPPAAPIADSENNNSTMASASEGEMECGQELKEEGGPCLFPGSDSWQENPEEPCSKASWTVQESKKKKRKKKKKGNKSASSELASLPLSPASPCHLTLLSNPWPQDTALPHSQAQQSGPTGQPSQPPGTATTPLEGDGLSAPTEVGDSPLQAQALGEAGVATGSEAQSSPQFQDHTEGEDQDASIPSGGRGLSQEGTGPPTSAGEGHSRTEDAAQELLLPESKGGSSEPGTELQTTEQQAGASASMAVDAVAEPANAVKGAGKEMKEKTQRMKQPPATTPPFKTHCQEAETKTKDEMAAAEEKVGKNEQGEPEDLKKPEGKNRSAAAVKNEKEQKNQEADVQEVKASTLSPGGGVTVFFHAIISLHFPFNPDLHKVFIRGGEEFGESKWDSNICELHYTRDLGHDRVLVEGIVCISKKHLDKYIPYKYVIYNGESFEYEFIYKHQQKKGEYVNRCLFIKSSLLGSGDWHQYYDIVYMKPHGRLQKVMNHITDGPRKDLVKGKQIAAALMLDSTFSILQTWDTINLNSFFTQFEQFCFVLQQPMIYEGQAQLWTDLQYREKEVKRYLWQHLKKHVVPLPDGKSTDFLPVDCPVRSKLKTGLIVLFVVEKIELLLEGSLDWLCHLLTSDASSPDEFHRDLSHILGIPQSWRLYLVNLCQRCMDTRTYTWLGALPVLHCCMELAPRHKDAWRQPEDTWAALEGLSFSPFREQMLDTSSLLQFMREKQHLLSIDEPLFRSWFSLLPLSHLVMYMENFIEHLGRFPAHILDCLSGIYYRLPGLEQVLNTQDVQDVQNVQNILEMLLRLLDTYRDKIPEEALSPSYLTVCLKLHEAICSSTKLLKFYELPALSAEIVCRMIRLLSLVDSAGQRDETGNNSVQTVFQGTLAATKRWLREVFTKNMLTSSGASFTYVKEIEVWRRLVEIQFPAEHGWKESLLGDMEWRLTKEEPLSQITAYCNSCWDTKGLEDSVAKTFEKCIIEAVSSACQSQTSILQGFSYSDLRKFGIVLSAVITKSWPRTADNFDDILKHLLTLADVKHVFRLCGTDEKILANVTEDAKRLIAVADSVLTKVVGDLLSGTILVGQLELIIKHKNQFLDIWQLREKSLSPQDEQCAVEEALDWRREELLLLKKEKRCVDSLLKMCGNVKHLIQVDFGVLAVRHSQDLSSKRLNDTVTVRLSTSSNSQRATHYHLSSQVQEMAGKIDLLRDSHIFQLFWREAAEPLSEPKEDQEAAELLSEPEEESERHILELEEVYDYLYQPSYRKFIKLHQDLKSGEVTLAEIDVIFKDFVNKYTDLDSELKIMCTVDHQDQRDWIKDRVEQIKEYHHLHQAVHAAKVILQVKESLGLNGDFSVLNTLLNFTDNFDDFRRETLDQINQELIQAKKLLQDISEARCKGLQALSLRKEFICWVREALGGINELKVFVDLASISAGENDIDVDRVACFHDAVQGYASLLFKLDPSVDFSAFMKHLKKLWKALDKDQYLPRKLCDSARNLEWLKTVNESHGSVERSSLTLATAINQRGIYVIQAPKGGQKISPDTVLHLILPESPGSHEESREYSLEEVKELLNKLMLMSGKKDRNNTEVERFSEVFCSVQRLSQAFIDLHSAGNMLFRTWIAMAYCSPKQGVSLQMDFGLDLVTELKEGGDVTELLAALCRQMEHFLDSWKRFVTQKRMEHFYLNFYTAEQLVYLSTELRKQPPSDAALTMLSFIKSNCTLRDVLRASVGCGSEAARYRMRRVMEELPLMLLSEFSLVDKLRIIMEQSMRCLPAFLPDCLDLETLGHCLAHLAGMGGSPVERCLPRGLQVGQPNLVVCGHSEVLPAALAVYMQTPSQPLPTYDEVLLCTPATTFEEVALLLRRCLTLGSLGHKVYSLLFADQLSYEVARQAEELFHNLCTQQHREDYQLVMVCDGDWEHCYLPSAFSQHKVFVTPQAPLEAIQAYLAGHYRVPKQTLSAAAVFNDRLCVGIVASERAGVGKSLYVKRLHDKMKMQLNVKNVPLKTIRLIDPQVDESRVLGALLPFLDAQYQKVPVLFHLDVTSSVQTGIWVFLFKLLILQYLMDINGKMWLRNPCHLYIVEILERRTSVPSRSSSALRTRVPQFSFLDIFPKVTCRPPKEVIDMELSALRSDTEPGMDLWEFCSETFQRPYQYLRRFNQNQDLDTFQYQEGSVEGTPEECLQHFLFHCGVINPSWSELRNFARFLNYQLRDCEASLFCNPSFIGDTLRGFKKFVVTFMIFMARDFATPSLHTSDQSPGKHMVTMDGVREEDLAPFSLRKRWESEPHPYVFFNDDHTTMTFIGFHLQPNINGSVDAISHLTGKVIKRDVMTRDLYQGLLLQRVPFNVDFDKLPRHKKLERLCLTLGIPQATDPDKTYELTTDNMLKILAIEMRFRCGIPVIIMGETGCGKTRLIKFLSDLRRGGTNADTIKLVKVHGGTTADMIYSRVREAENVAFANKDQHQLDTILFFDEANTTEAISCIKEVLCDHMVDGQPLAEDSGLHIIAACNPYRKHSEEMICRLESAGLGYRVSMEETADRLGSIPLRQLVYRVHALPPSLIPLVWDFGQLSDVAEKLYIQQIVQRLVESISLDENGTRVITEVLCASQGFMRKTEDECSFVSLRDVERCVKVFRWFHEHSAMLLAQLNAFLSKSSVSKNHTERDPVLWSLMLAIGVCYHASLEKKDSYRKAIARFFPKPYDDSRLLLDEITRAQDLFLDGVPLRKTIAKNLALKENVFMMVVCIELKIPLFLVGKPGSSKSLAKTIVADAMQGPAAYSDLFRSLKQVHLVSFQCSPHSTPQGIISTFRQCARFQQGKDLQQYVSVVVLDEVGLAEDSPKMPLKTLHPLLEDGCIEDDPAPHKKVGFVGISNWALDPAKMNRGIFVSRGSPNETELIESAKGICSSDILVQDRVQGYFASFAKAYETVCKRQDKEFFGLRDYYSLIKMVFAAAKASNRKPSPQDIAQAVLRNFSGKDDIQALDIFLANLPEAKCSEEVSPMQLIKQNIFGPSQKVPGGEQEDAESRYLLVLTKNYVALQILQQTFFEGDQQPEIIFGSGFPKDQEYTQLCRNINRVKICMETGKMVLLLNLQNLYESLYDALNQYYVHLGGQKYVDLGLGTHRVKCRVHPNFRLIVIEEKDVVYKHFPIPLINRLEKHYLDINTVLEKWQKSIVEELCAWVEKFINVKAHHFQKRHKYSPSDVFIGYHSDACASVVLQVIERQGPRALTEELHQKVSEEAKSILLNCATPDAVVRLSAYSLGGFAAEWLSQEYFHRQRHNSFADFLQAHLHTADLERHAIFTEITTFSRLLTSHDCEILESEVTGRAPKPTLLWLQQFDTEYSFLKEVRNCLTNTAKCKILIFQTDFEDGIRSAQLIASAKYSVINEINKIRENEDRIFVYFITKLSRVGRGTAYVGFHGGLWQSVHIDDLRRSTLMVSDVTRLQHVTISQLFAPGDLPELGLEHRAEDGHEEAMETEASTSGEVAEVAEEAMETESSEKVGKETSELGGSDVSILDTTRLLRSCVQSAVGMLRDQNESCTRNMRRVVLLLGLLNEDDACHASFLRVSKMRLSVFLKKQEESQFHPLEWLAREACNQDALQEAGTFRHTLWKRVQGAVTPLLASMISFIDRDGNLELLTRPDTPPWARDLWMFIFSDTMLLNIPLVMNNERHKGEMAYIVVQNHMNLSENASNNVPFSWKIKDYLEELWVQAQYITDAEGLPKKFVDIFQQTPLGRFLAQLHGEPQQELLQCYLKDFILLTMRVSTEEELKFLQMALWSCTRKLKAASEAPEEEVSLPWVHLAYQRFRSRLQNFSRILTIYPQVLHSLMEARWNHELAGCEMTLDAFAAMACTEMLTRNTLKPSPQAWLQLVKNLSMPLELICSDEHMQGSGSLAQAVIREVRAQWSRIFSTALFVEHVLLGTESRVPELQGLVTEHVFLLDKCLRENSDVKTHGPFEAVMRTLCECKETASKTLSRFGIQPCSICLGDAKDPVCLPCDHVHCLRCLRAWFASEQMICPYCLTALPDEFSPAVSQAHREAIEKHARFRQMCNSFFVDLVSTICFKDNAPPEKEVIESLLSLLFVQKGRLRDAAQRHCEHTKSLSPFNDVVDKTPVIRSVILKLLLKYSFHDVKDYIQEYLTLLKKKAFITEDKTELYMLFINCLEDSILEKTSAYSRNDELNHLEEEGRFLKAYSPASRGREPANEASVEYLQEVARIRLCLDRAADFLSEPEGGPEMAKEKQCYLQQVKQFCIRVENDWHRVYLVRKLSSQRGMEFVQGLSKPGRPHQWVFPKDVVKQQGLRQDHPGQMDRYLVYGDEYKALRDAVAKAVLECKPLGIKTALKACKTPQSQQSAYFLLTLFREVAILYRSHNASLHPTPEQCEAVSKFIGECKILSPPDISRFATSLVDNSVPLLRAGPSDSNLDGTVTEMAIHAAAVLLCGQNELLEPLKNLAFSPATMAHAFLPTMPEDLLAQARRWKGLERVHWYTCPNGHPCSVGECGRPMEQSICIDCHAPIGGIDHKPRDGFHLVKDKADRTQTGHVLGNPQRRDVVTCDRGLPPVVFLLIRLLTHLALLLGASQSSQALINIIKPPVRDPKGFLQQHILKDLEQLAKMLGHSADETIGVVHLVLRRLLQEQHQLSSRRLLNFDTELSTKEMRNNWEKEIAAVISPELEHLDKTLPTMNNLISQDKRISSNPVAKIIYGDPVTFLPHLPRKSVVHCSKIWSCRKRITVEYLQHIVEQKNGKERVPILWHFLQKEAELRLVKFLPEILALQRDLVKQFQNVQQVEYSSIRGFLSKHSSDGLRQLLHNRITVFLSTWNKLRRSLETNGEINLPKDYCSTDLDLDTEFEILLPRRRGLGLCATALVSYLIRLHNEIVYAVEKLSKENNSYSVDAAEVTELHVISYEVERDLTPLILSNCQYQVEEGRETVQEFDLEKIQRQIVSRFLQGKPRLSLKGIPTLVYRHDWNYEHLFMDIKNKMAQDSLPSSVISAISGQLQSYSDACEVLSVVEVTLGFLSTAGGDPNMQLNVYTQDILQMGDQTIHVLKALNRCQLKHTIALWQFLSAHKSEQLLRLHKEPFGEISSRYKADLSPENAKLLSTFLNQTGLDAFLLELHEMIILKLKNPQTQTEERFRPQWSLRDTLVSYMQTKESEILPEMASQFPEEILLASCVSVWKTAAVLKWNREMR

binding result [1]	binding result [2]	binding result [3]	Binder
binds			B1
binds			B2
binds	binds		B3
binds	binds		B4
		binds	B5
